Among the data in patent US6960559 are Amount necessary to degrade 50% of substrate in 30 min values, retold here.

For the series, the system named is T1, cbz-FAF[125I]Y-NH2.
T1 sequence: FAFY

B1: papain (enzyme, UniProt P00784 134-345, looked up)
Papain: IPEYVDWRQKGAVTPVKNQGSCGSCWAFSAVVTIEGIIKIRTGNLNEYSEQELLDCDRRSYGCNGGYPWSALQLVAQYGIHYRNTYPYEGVQRYCRSREKGPYAAKTDGVRQVQPYNEGALLYSIANQPVSVVLEAAGKDFQLYRGGIFVGPCGNKVDHAVAAVGYGPNYILIKNSWGTGWGENGYIRIKRGTGNSYGVCGLYTSSFYPVKN
B1 registered an Amount necessary to degrade 50% of substrate in 30 min of 2 µg.
